From patent US20150140014A1

Experiments:
[1] = target: c-Met on human cancer cells (MKN45 gastric cancer cells; NCI-H441 lung cancer cells) (human) (UniProt P08581); test: cell-based or functional assay
[2] = target: human c-Met protein (human) (UniProt P08581); test: SPR (Biacore), antibody immobilized on CM5 chip, human c-Met protein 0.39-100 nM injected
Sequence of human c-Met protein (human) (P08581 25-932 limits assumed): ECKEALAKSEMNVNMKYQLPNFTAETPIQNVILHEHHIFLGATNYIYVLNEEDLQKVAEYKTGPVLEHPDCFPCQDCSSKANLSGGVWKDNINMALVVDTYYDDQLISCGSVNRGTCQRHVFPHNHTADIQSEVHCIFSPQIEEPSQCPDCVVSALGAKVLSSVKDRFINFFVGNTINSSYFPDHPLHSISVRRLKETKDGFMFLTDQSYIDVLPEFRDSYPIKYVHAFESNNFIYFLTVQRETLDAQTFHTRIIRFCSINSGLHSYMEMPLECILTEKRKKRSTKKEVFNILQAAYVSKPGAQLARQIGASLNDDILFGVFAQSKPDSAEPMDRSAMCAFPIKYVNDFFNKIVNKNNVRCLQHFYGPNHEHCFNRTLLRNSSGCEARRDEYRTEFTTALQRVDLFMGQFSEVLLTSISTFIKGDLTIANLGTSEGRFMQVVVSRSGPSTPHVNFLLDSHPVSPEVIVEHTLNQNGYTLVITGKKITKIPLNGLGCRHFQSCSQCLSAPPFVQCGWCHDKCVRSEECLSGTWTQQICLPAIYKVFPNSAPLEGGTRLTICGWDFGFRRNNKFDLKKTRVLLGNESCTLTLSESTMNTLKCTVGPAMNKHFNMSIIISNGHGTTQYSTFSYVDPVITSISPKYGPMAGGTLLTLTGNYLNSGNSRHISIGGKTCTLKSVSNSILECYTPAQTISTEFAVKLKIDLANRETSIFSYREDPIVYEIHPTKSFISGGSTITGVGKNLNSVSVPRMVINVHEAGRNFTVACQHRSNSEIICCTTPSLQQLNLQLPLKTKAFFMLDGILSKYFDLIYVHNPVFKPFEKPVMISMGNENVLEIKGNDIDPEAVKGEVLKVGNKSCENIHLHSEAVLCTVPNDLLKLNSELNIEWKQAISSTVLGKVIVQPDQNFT

Sequence of c-Met on human cancer cells (MKN45 gastric cancer cells; NCI-H441 lung cancer cells) (human) (P08581 25-1390): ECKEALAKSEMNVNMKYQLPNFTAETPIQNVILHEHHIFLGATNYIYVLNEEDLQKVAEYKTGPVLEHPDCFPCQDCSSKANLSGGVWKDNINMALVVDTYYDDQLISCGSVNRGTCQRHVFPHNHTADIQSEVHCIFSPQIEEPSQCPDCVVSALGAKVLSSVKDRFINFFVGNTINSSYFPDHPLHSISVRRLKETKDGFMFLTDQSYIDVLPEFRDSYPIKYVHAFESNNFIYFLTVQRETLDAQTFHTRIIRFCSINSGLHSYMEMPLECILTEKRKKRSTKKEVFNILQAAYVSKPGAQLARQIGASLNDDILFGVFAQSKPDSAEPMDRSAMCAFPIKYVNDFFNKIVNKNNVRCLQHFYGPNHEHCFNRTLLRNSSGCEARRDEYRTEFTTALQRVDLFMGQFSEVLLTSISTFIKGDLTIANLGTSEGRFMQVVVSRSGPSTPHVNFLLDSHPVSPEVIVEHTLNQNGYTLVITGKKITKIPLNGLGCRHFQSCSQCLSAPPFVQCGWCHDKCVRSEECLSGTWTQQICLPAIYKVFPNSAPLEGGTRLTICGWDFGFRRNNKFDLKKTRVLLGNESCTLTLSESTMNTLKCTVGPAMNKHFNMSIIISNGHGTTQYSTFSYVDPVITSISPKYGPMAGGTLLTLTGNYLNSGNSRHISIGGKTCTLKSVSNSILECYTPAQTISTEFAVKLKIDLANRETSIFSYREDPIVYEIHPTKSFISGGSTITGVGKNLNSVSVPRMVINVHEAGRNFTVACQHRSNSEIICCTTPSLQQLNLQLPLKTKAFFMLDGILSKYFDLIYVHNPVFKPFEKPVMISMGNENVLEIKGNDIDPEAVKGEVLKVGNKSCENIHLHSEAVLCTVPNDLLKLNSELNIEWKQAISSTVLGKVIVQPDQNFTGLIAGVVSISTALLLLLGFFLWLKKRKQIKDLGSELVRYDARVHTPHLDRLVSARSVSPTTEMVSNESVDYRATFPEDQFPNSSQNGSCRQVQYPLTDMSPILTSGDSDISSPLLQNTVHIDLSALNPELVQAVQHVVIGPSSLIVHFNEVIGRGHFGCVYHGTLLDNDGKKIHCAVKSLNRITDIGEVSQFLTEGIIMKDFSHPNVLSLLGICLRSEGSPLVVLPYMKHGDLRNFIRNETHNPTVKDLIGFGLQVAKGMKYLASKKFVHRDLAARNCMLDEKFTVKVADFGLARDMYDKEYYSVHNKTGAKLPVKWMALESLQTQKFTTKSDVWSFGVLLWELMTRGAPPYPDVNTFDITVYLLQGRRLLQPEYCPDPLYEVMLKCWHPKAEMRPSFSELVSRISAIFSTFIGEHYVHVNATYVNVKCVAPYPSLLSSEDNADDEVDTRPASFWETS

- BrdU assay on NCI-H441 cells (agonism), 10 ug/ml [1]: 25%
- degree of degradation of c-Met (total c-Met ELISA, MKN45 cells, 5 ug/ml, 24 hours) [1]: 37%
- Kd [2]: 0.06 nM
- koff [2]: 4.53e-05 s⁻¹
- kon [2]: 739000 M⁻¹ s⁻¹
B1: huAbF46-H4-A1 (antibody, from a related filing, V domains shown)
VH: EVQLVESGGGLVQPGGSLRLSCAASGFTFTDYYMSWVRQAPGKGLEWLGFIRNKANGYTTEYSASVKGRFTISRDNSKNTLYLQMNSLRAEDTAVYYCARDNWFAYWGQGTLVTVSS
VL: DIQMTQSPSSLSASVGDRVTITCKSSQSLLASGNQNNYLAWHQQKPGKAPKMLIIWASTRVSGVPSRFSGSGSGTDFTLTISSLQPEDFATYYCQQSYSRPYTFGQGTKVEIKR
